Assay: yeast display, Sf9 membrane polyspecificity reagent, FACS + sequencing; frameworks hold sequencing errors
How it was run: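 In a synthetic yeast display library (Saccharomyces cerevisiae BJ5465), nanobody expression was induced with galactose for 36–48 hours. FACS gates were set low and high (top ~1%) using anti-HA fluorescence for expression and streptavidin fluorescence for binding of the Sf9 membrane reagent. Each polyreactivity label is drawn from the gate of origin.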

| Sequence | polyreactivity (PSR sort gate) |
| --- | --- |
| QVQLVESGGGLVQAGGSLRLSCAASGGIFADYAMGWYRQAPGKERELVADISARGGSTYNADSVKGRFTISRDNAKNTVYLQMNSLKPEDTAVYYCATDGPGYPPTLRYDYWGQGTQVTVSS | low polyreactivity |
| QVQLVESGGGLVQAGGSLRLSSAASGRTFYYNAMGWYRQAPGKEREFVAVMTSSGGSTYYADSVKGRFTISRDNAKNTVYLQMNSLKPEDTAVYYSAASNTEQQLVVLIEVYYTRYDYWGQGTQETVSS | low polyreactivity |
| QVQLLESGGGLVQAGGSLRLSCAASGIIFCEYAMGWYTQAPGKERELVATITSGDSTNYADSVKGRFTISRDNAKNTVYLQMNSLKPEDTAVYYCIADYAFLPSYDYWGQGTQVTVSS | low polyreactivity |
| QDQLVESGGGLVQAGGSLRLSCAASGRTFHLYAMGWYRPAPGKERELVAAIRWTGVSTYYADSVKGRFTISRDNAKNTVYLEMNSLKPEDTAVYYCATKQRYRVSRDWSSYCYGYWGQGTQVTVSS | high polyreactivity |
| QVQLVDSGGGLVQAGGSLRLSCAASGRTFWQYAMGWYRQAPGKERELVAAISRSGGSTYYADSVKGRFTISRDNAQNTVSLQMNSLKPEDTAVYYCAAYYLGYNYDYWGQGTQVTVSS | high polyreactivity |
| QVQLVESGGGLVQAGGSLRLSCAASGSISSGYTMGWYRQAPGKERELVASIRSGGSTYYADSVKGRFTISRDNAKNTVYLQMNSLKPEDTAVYYCAARFFYRYSWGRTRGYDYWGQGTQVTVSS | high polyreactivity |
| QVQLVESGVGLVQAGGSLRLSCAASGSIFEVYAMGWYRQAPGKEREFVATLSGSGGSTYYADSVKGRFTISRDNAKNTVYLQMNSLKPEDTAVYYCAASIAWYSSFVITCYYWGQGTQVTVSS | low polyreactivity |
| QVQHVESGGGLVQAGGSLRLSCAASGRIFGVYVMGWYRQAPGKERELVAAITGGGSTYYADSVKGRFTISRDNAKNTVYLQMNSLKPEDTAVYYCAARYLVTYGHQQRYYYWGQGTQVTVSS | high polyreactivity |
| QLLLQESVGGLVQAGGSLRLSCAASGSIFLFYTMGAYRQAPVKELEFVAGITLGTTTYNADSVKGRFTISRDNVKNTVYLQMNSLKPEDTAVYYCAVAVGHYTEFWYWGQGTQVTMSS | high polyreactivity |
| QVQLVESGGGLVQAGGSLRLSCAASGSTFYHYAMGWYRQAPGKERELVATISRRGGSTYYADSVKGRFTISRDNAKNTVYLQMNSLKPEDTAVYYCAAEYARSSRYKISSEMYYWGQGTQVTVSS | high polyreactivity |
| QVQLVESGGGLLQAGGSLRLSCAASGSIFNKYAMGWYRQATGKEREFVAAITQGGGRTYYADSEKVRFTISRDNAKNTDYLQMNILKPEDTAVYYCNYNFNYPYYRYGYWGQGTQVTVSS | high polyreactivity |
| QVQLVESGGGLVQAGGSLRLSCAASGRTFLRYAMGWSRQAPGKERELVAAISSRGGRTYYADSVKGRFTISRDNAKNTVYLQMNILKPEDTAVYYCNARYSPRTGRGRHVTYYYWGQGTQVTVSS | high polyreactivity |
| QVQHVESGGALVQAGGSLRLSCAASARTFPGYTMGWYRQAPGKETELVAAITRVGTTYYADSVKGRFTISRDNAKNTVYLQMNSLKPEDTAVYYCAAVISQGFIRYYYWGQGTQVTVSS | high polyreactivity |
| QVQLVESGRGLVQAGGSLRLSCAASGRIFRSYAMGWYIPAPGKERELFAAISRSGGSTYYADSVKGRFTISRDNGKNTVYLQMNSLKPEDTAVYYCASRYSLGTNSKFFAYGYWGQGTQVNVSS | high polyreactivity |
| QVQLQESGGGLVQEGGSLRLSCAASGNISPPADMGWYRQAHGKERELVASIGTGGTTNYADSVKGRFTISRDNAKNSVYLQMNSLKPDDTAVYYCAAVRYEYNPYDYWGQGTQVTVSS | low polyreactivity |
| QVQLVESGGGLVQAGGSLRLSCAASGQIFSRYAMGWSRQAPGNERELVAAITWSGGRTYYADSVKGRFTISRDNAKYTVYLQMNSLKAEDTAVYYCAATRYPLPEYYWGQGTQGTVSS | high polyreactivity |

| Sequence | polyreactivity (PSR sort gate) |
| --- | --- |
| QVQLVETGGGLVQAGGSLRLSCAASGSIFTYYTMGWYRQAPGKERELVAAINGRGHSTYYADSVKGRFTISRDNAKNTVYLHMNSLKPEDTAVYYCARRRQYEYNYWGQGTQVTVSS | high polyreactivity |
| QVQLVESGGGLVQAGGSLRLSCAASGSIFSRYAMGWYRQAPGKERELVADITTRGGRTYYADSVKGRFTISRDNAKNTVYLQMNSLKPEDTAVYYCATLHSYRYRGGGDYWGQGTQVTVSS | high polyreactivity |
| QVQLVESGGGLVQAGGSLRLRCAASGRIFPYYAMGWYRQSPGKERELVAAIRWSGGDTYYADSVKGRFTISRDNAKNTVYLQMNSLKPEDTAVYYCAAKAYSYSRWGYYGYYYWGQGTQVTVSS | high polyreactivity |
| QVQLVESGGGLVQAGGSLRLSCAASGNTFNSYAMGWYRQAPGKEREFVAAISGSGSSTYYADSVKGRFTISRDNAKNTVYLQMNSLKPEDTAVYYCAARWRYYGSFDYWGQGTQVTVSS | high polyreactivity |
| QVQLVESGGGLGQAGGSLRLSCAASGITFGDYAMGWYIQAPGKERELVAAISTSGVRTYYADSVKGRFTISRDNAKNTVYLQMNSLKTEDTAVYYCAAKYYGEMYYWGQVTQVTVSS | low polyreactivity |
| QVQLVESGGGLVQAGGSLRLSCAASGNILEGYTMGWYRQAPGQERELVATISGRGGSTYYADSVKGRFTMSRDNAKNTVYLQMHSLKPEDTAVYYCNALPWALYESTSIYYYWGQGTQVTVSS | low polyreactivity |
| QVQLVESGGGLVHAGGSLRLSCAASGRIFKSYAMGWYRQAPGKEREFVAAISTRSSSTYYADSVKGRFTISRDNAKNTVYLQMNSLKPEDTAVYYCAKVYQTLPYYYPGDYWGQGTQVNVSS | low polyreactivity |
| QVQLVESGGGLVQAGGSLRLSCAASGSTFYLYAMGWYRQAPGKERELVASITSGDGSTYYADSVKGRFTISRDNPKNTVYLQMNSLKPEDTAVYDCNAVLEGWFYQDDYWGQGTQVSVSS | low polyreactivity |
| QVQLVESGGGLVQAGGSLRLSCAASGSIFFYALGWYRQAPGKERELVADITYTGGSKYADSVKGRFTISRDNAKNTVYLQLNRLKPEDTAVYYCAKLDGGLFDYWGQGTQVTVSS | low polyreactivity |
| QVQLGESGGGLVQAGGSLRLSCAASGRIFSKNAMGWYRQAPGKERELVASIRQSGSNTYADSVKGRFTISRVNAKNTVYVQMNSLKPEDTAVYNCAASYFPLNSGRKVGYWGQGTQVTVSS | low polyreactivity |
| QVQLVESGGGLVQAGGSLRLSCDASGFTFPSYAMGWYRQAPGKERELVAAISYRGGRTYYADSVKGRFTISRDNAKNTVYLQMNSLKPEDTAVYYCAAAGYAWWGEYEYWGQGTQVTVSS | high polyreactivity |
| QVQLVESGGGLVQAGGSLRLSCAASGSTIWSNAMGWYIQAPGKERELVAVISGGTSTNYADSVKGRFTISRDNAKNTVYLQMNSLKPEDTAVYYCAADWGSYLILINDTEMDYWGQGTQVTVSS | low polyreactivity |
| QVQLVESGGGLVQAGGSLRLSCAASGSIFFANAMGWYRQAPGKERELVAAITGSGDITYYADSVKGRFTISRDNAKNTVYLQMNSLKPEDTAVYYCAKRYIYVTHLRHPRYYYWGQGTQVTVSS | low polyreactivity |
| QVQRVESGGGLVQAGGSLRLSSAASGPIYGDYAMGWYRQEPGKERELVADITWSGGSTYYADSVKGRFTISRDNAKNTVYLQMNSLKPEDTAVYYCNADVWFYYTFDYWGLGTQVTVSS | low polyreactivity |
| QVQLVESGGGLVQAGGSLRLSSAASGSTFAYYAMGWYRQEPAKEGELVASISWRGGSTYYADSVKGRFTISRDNAKNTVYLQMNSLKPEDTAVYYCAARSTYRPWLLSAYGYWGQGTQVTVSS | low polyreactivity |

— the nanobody polyreactivity screen of Harvey et al. (2022)
